The record followed here is publication doi:10.1101/2020.12.15.422916.

What is called stoichiometry N is a count of units in the complex or per binding partner.

Experiment [1] deals with hexameric Aβ from CHO cells transfected with C99 carrying the Iowa (D23N) FAD mutation (human). The experiment can be described thus: SDS-PAGE and western blot of SDS-stable assemblies. Background: A western blot detects proteins with antibodies after separation by electrophoresis.
For experiment [2], the target named is hexameric Aβ from CHO cells transfected with C99 carrying the Flemish (A21G) FAD mutation (human). The experiment can be described thus: SDS-PAGE and western blot of SDS-stable assemblies.
The target of experiment [3] is hexameric Aβ from CHO cells transfected with C99 carrying the Italian (E22K) FAD mutation (human). The experiment can be described thus: SDS-PAGE and western blot of SDS-stable assemblies.
Experiment [4] deals with assembly-impaired variant of Aβ42 from CHO cells transfected with vC42 (F19S, G37D) (human). The experiment can be described thus: SDS-PAGE and western blot of SDS-stable assemblies.
Experiment [5] deals with C99-derived hexameric Aβ42 (cell-derived, from CHO cells transfected with C99) (human) (UniProt P05067). The experiment can be described thus: GELFrEE 8100 electrophoretic fractionation with western blot.
For experiment [6] the target is unchanged. The experiment can be described thus: SDS-PAGE and western blot of SDS-stable assemblies.
Experiment [7] concerns the target hexameric Aβ from CHO cells transfected with C99 carrying the Dutch (E22Q) FAD mutation (human). The experiment can be described thus: SDS-PAGE and western blot of SDS-stable assemblies.
The target of experiment [8] is hexameric Aβ from CHO cells transfected with C99 carrying the Arctic (E22G) FAD mutation (human). The experiment can be described thus: SDS-PAGE and western blot of SDS-stable assemblies.

“hexameric Aβ from CHO cells transfected with C99 carrying the Iowa (D23N) FAD mutation (peptide)” showed a stoichiometry N in experiment [1] of 6.
In the case of “hexameric Aβ from CHO cells transfected with C99 carrying the Flemish (A21G) FAD mutation (peptide)”, the stoichiometry N in experiment [2] was determined as 6.
Consider “hexameric Aβ from CHO cells transfected with C99 carrying the Italian (E22K) FAD mutation (peptide)”, for which, in experiment [3], the stoichiometry N is 6.
Regarding “assembly-impaired variant of Aβ42 from CHO cells transfected with vC42 (F19S, G37D) (peptide)”, the stoichiometry N in experiment [4] was determined as 2.
Consider “C99-derived hexameric Aβ42 (cell-derived, from CHO cells transfected with C99) (from UniProt P05067 672-770) (peptide)”, for which the stoichiometry N in experiment [5] and in experiment [6] was 6 throughout.
In turn, “hexameric Aβ from CHO cells transfected with C99 carrying the Dutch (E22Q) FAD mutation (peptide)” displayed a stoichiometry N in experiment [7] of 6.
“hexameric Aβ from CHO cells transfected with C99 carrying the Arctic (E22G) FAD mutation (peptide)” yielded a stoichiometry N in experiment [8] of 6.
